The data set concerns the target T1, ZmMYB84 (MBP fusion) (Zea mays, UniProt B4FQD3 1-356).
T1 sequence: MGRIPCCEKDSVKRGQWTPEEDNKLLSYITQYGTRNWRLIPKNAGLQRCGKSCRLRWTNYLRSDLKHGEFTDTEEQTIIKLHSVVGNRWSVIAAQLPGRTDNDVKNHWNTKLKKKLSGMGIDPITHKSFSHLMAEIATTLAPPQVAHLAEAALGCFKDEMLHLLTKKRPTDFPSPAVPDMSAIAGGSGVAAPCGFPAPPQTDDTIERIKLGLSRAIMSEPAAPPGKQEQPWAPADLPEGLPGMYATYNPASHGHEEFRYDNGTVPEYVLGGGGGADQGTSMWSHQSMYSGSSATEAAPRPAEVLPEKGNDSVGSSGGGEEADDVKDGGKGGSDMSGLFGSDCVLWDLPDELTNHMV
Description: EMSA; EMSA conditions not stated (as in Hou et al., 2023). To be noted: protein: recombinant; tags: MBP (ZmMYB84 fused to the C-terminus of MBP; vector pMCSG7); label: biotin; 5' overhang 1 nt on each strand (so in the source). Background: A gel shift assay detects complexes by their altered migration in electrophoresis.

B1: ZmTKPR1-2bio promoter probe (dsDNA)
DNA 1: ATTGCAAATCTACCCCCAACCAACCCAGCTTTGTATCTG
DNA 2: GCAGATACAAAGCTGGGTTGGTTGGGGGTAGATTTGCAA
Consider B1, for which the binding result is “binds”.

B2: ZmTKPR1-1bio promoter probe (dsDNA)
DNA 1: TAGGAAGGAAGAAGGTTCCTGCAATGCATGTAAGGTTGGTAATTCATGCCTT
DNA 2: AAAGGCATGAATTACCAACCTTACATGCATTGCAGGAACCTTCTTCCTTCCT
On to B2, for which the binding result is given as “binds”.

The record behind these values is article PMC10754010, “CRISPR/Cas9‐based genome editing of 14 lipid metabolic genes reveals a sporopollenin metabolon ZmPKSB‐ZmTKPR1‐1/‐2 required for pollen exine formation in maize”.
